# Data: patent US20250144178A1, “PHARMACEUTICAL COMPOSITION FOR CANCER TREATMENT COMPRISING FUSION PROTEIN INCLUDING IL-12 AND ANTI-FAP ANTIBODY AND ANTICANCER AGENT” (KANAPH THERAPEUTICS INC., priority 2022, published 2025)
# B1: T1.01m: K&H bispecific: anti-mu FAP/mu IL-12, mu IgG2a DANG (seq18, seq19, seq20) (antibody)
# heavy: QVQLQQSGAELARPGASVNLSCKASGYTFTNNGINWLKQRTGQGLEWIGEIYPRSTNTLYNEKFKGKATLTADRSSNTAYMELRSLTSEDSAVYFCARTLTAPFAFWGQGTLVTVSAAKTTAPSVYPLAPVCGDTTGSSVTLGCLVKGYFPEPVTLTWNSGSLSSGVHTFPAVLQSDLYTLSSSVTVTSSTWPSQSITCNVAHPASSTKVDKKIEPRGPTIKPCPPCKCPAPNLLGGPSVFIFPPKIKDVLMISLSPIVTCVVVAVSEDDPDVQISWFVNNVEVHTAQTQTHREDYGSTLRVVSALPIQHQDWMSGKEFKCKVNNKDLPAPIERTISKPKGSVRAPQVYVLPPPEEEMTKKQVTLWCMVTDFMPEDIYVEWTNNGKTELNYKNTEPVLDSDGSYFMYSKLRVEKKNWVERNSYSCSVVHEGLHNHHTTKSFSRTPGK
# light: QIVLTQSPAIMSASPGEKVTMTCSASSGVNFMHWYQQKSGTSPKRWIFDTSKLASGVPARFSGSGSGTSYSLTISSMEAEDAATYYCQQWSFNPPTFGGGTKLEIKRADAAPTVSIFPPSSEQLTSGGASVVCFLNNFYPKDINVKWKIDGSERQNGVLNSWTDQDSKDSTYSMSSTLTLTKDEYERHNSYTCEATHKTSTSPIVKSFNRNEC
# chain: MWELEKDVYVVEVDWTPDAPGETVNLTCDTPEEDDITWTSDQRHGVIGSGKTLTITVKEFLDAGQYTCHKGGETLSHSHLLLHKKENGIWSTEILKNFKNKTFLKCEAPNYSGRFTCSWLVQRNMDLKFNIKSSSSSPDSRAVTCGMASLSAEKVTLDQRDYEKYSVSCQEDVTCPTAEETLPIELALEARQQNKYENYSTSFFIRDIIKPDPPKNLQMKPLKNSQVEVSWEYPDSWSTPHSYFSLKFFVRIQRKKEKMKETEEGCNQKGAFLVEKTSTEVQCKGGNVCVQAQDRYYNSSCSKWACVPCRVRSGGGGSGGGGSGGGGSRVIPVSGPARCLSQSRNLLKTTDDMVKTAREKLKHYSCTAEDIDHEDITRDQTSTLKTCLPLELHKNESCLATRETSSTTRGSCLPPQKTSLMMTLCLGSIYEDLKMYQTEFQAINAALQNHNHQQIILDKGMLVAIDELMQSLNHNGETLRQKPPVGEADPYRVKMKLCILLHAFSTRVVTINRVMGYLSSAGGGGSGGGGSEPRGPTIKPCPPCKCPAPNLLGGPSVFIFPPKIKDVLMISLSPIVTCVVVAVSEDDPDVQISWFVNNVEVHTAQTQTHREDYGSTLRVVSALPIQHQDWMSGKEFKCKVNNKDLPAPIERTISKPKGSVRAPQVYVLPPPEEEMTKKQVTLSCAVTDFMPEDIYVEWTNNGKTELNYKNTEPVLDSDGSYFMVSKLRVEKKNWVERNSYSCSVVHEGLHNHHTTKSFSRTPGK
# Columns and labels:
# [1] = test system: CT26 colorectal cancer with mouse FAP overexpressing NIH-3T3 cells; experiment: Tumor growth inhibition, CT26 co-injected with mouse FAP overexpressing NIH-3T3; type: in vivo, BALB/c mice
# Description: Specifically, the mouse FAP overexpressing NIH-3T3 cells and the CT26 cells in culture were resuspended in Hanks' Balanced salt solution (HBSS, Gibco) at a concentration of 1×10^6 cells/50 μl, respectively, and the cells were mixed in a 1:1 ratio, and then 100 μl per each mouse was transplanted into the subcutaneous region of the right flank of 6-week-old BALB/c mice using a 1 cc syringe (25G) to obtain an FAP-expressing fibroblast co-injection animal model. The tumor size was measured using a digital vernier caliper by measuring the short axis and long axis of the tumor, and the tumor size was measured twice a week using the calculation formula of (short axis, mm) 2×(long axis, mm)×0.5.
# Next, for drug efficacy evaluation, when the size of the tumor reached 100 mm^3, the mice were randomly divided into groups. Each experimental group consisted of 10 animals, and as a control, each 100 μl of 50 μg of T1.24m was intraperitoneally administered three times at an interval of 3 days. In the test group, each 100 μl of 10 μg and 50 μg of T1.02m and 50 μg of T1.01m, respectively, were intraperitoneally administered three times at an interval of 3 days to evaluate the tumor growth inhibitory ability.
# [2] = test system: FAP-overexpressing mouse colorectal cancer CT26; experiment: Tumor growth inhibition by IL-12 mutation, FAP-overexpressing CT26, single i.v. dose; type: in vivo, BALB/c mice; details: 10 μg i.v. once, 15 days after administration, control PBS, FIG. 28
# Description: In order to evaluate the change in IL-12 activity according to the presence and extent of amino acid mutation, FAP-overexpressing mouse colorectal cancer CT26 was prepared by resuspending in PBS at a concentration of 5×10^5 cells/100 μl, and the tumor growth inhibitory ability was evaluated in a tumor animal model prepared by transplantation of the cells into 5-week-old female BALB/c mice.
# Specifically, when the size of the tumor in the model reached 100 mm^3, the mice were randomly divided into groups. 100 μl of phosphate buffered saline (PBS) was administered once via tail vein injection of the control, and each of T1.01m, T1.02m and T1.03m was intravenously administered once at a dose of 10 μg.
# [3] = test system: mouse FAP overexpressing B16F10 melanoma; experiment: Melanoma model, mouse FAP overexpressing B16F10; type: in vivo, C57BL/6J mice; details: 10 μg and 100 μg i.v. once, control PBS, FIG. 30
# Description: In order to identify the anticancer effect through immune activation of the fusion protein, mouse FAP was overexpressed in the mouse melanoma cell line B16F10, which is known to have little immune cell infiltration, and then transplanted into C57BL/6J mice, and the tumor growth inhibitory ability was evaluated.
# Specifically, the cells in culture were resuspended in Hanks' Balanced salt solution (HBSS, Gibco), and then 100 μl of 1×10^6 tumor cells per each mouse were transplanted into the subcutaneous region of the left the dorsal flank side of 6-week-old C57BL/6J mice.
# Next, for drug efficacy evaluation, when the size of the tumor reached 70 to 100 mm^3, the mice were randomly divided into groups. As the control, PBS was administered, and as the test group, T1.03m was intravenously administered once at a dose of 10 μg and 100 μg.
molecule,measurement,setting,value
B1,tumor growth inhibitory ability compared to control,"[1]; 50 μg i.p. three times at an interval of 3 days, 14th day, control 50 μg T1.24m",91.9%
same,complete response,"[1]; 24th day after administration, FIG. 24",subjects in complete response were observed
same,tumor growth inhibitory ability compared to the control,[2],excellent tumor growth inhibitory ability
same,tumor growth inhibitory ability compared to the control,[3],high tumor growth inhibitory ability
